Data on five molecules can be found in patent publication US6475768B1 (Forskarpatent I Syd AB, priority 2000, dated 2002).

Data set [1] has as its target Thermus thermophilus xylose isomerase (xylA), mutant 1010 (M1010) (Thermus thermophilus, UniProt P26997). Format: biochemical. The following applies: mutant 1010, crude enzyme, 10 mM MnCl2, pH 7.0. The protocol: (§1) The cells were harvested by centrifugation in the stationary phase of growth and washed once with ice cold distilled water. Washed cells were resusprended in 100 mM triethanolamine, pH 7.0, 0.5 mg/ml lysozyme (130000 U/mg), 0.25 mg/ml DNase, and 1 mM phenylmethylsulphonyl fluoride (PMSF) in dimethylsulfoxide (DMSO). The suspensions were kept at room temperature for one hour and then on ice for two hours before being put in a freezer at −20° C. The cell lysates were thawed on ice, cell debris was removed by centrifugation (1300 rpm for 15 minutes at 4° C.) and the supernatants were used as the crude enzyme preparations.
(§2) Protein concentration was determined with the Bradford method (Bradford (1976)) using the Pierce protein reagent with bovine serum albumin as standard.
(§3) The reaction was terminated after 10 minutes by adding 150 μl 50% trichloroaceticacid. The reaction mixture was neutralized with 185 μl 2 M Na2CO3. The formed xylulose or fructose was measured on a COBAS MIRA (Roche) automated spectrophotometer via enzymatic reduction with 0.04 or 0.5 units of Sorbitol Dehydrogenase (purchased from Roche), respectively in the presence of 0.15 mM NADH at pH 7.0, 37° C. in 200 μl reaction volume. The rate of disappearance of NADH was followed at 340 nm and the concentration of D-xylulose or D-fructose was calculated using calibration curves. […] The specific activity (U min^−1 mg^−1) was determined from the activity and the protein concentration of the crude enzyme preparations.
(§4) The kinetic parameters Vmax (μmol min^−1 mg^−1) and Km (mM) were determined from Michaelis-Menten plots of specific activities at various substrate concentrations by nonlinear regression analysis with Sigma Plot (SSPS Inc.) software. Typically, duplicate measurements were used to determine the Km value at 6-10 concentrations of the substrate, with a concentration range covering the value of Km.

Data set [2] concerns the target T1, Thermus thermophilus xylose isomerase (xylA), mutant 1026 (M1026) (Thermus thermophilus, UniProt P26997, E372G).
T1 construct: made in house; host or cells: E. coli HB101 (crude lysate)
T1 sequence (P26997 1-387 E372G): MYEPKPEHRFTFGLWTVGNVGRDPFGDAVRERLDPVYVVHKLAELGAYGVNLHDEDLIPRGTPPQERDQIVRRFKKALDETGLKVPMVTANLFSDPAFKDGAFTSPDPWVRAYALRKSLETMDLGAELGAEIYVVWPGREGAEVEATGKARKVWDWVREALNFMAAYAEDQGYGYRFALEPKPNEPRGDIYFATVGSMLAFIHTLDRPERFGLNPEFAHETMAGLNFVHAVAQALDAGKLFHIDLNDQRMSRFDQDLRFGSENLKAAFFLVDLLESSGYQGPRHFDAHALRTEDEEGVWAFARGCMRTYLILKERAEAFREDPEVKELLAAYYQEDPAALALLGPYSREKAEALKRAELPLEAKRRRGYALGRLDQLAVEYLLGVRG
The experiment in a line: Kinetic characterisation of mutant xylose isomerase 1026 (xylose/glucose isomerase activity, xylitol inhibition). Particulars: mutant 1026, crude enzyme, 10 mM MnCl2, pH 7.0. In kind it is biochemical. The procedure:
as §1, §2
(§5) The reaction was terminated after 10 minutes by adding 150 μl 50% trichloroaceticacid. The reaction mixture was neutralized with 185 μl 2 M Na2CO3. The formed xylulose or fructose was measured on a COBAS MIRA (Roche) automated spectrophotometer via enzymatic reduction with 0.04 or 0.5 units of Sorbitol Dehydrogenase (purchased from Roche), respectively in the presence of 0.15 mM NADH at pH 7.0, 37° C. in 200 μl reaction volume. The rate of disappearance of NADH was followed at 340 nm and the concentration of D-xylulose or D-fructose was calculated using calibration curves. […]

The target of data set [3] is T2, Thermus thermophilus xylose isomerase, wild type (nucleic acid sequence SEQ ID NO: 2) (Thermus thermophilus, UniProt P26997).
T2 sequence (P26997 1-387): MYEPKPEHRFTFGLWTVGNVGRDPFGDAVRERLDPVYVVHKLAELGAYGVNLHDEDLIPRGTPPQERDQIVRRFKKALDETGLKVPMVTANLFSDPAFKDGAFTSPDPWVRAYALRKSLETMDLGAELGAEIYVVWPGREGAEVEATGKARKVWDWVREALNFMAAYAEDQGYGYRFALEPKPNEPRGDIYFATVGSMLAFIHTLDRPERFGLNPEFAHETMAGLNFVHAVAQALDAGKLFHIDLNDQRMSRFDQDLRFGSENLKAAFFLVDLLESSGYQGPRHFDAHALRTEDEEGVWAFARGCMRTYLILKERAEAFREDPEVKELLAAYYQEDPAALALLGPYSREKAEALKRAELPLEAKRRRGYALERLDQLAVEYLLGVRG
The following applies: crude enzyme, 10 mM MnCl2, pH 7.0.

For data set [4], the target named is T3, Thermus thermophilus xylose isomerase (xylA), mutant 1024 (M1024) (Thermus thermophilus, UniProt P26997, E372G/F163L).
T3 construct: made in house; host or cells: E. coli HB101 (crude lysate)
T3 sequence (P26997 1-387 F163L/E372G): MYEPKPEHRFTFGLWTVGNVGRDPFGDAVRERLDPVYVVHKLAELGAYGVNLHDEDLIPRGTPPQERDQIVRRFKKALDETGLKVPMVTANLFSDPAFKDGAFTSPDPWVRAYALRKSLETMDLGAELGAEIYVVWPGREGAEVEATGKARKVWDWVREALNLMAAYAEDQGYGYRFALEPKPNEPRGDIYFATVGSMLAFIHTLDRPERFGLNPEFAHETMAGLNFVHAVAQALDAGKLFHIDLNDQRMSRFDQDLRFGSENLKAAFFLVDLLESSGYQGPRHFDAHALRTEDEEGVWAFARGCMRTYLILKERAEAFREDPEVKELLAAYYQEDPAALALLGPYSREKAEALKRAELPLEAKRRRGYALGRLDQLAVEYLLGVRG
Kind of data set: Kinetic characterisation of mutant xylose isomerase 1024 (xylose/glucose isomerase activity, xylitol inhibition). The following applies: mutant 1024, crude enzyme, 10 mM MnCl2, pH 7.0. Format: biochemical. The procedure: as §1, §2, §5

Substrate in data set [5]: OC[C@H]1OC(O)[C@H](O)[C@@H](O)[C@@H]1O
The experiment in a line: cells, lysate or membranes named. Particulars: other: mutant 1021, crude enzyme, 10 mM MnCl2, pH 7.0. In kind it is biochemical, Thermus thermophilus. The procedure:
as §1, §2
as §3, with “preparations. […] The temperature optimum for the mutants were roughly the same as for the wild type enzyme except for mutant 1021, which had ˜10° C. lower temperature optimum.” for “preparations.”
as §4

Substrate in data set [6]: OC1OC[C@@H](O)[C@H](O)[C@H]1O
The experiment in a line: cells, lysate or membranes named. The following applies: 10 mM MnCl2, pH 7.0. Format: biochemical, Thermus thermophilus. The procedure: as §1, §2
as §3, with “preparations. […] The temperature optimum for the mutants were roughly the same as for the wild type enzyme except for mutant 1021, which had ˜10° C. lower temperature optimum.” for “preparations.”
as §4

The conditions of data set [7]: cited from earlier work.
Data set [8] is described as follows: Effect of pH on the activity of the enzymes. In kind it is biochemical. Particulars: 60° C., 700 mM D-xylose, 10 mM MnCl2, pH range 5-10. The procedure: The effect of pH on the activity of the enzymes was followed in the pH range 5-10 in a buffer prepared by mixing acetate, piperazine-N,N'-bis-(2-ethanolsulphonic acid) (PIPES), […] (HEPES) and glycine at final concentration 50 mM each as described by (Dekker at al. (1992) Appl. Mirobiol. Biotechnol. 36: 727-732). The pH was adjusted at 60° C. with NaOH.

The nature of data set [9]: Effect of different bivalent cations on the activity of EDTA treated enzymes. Format: biochemical. Particulars: EDTA treated enzyme, activity with 10 mM MnCl2 at 60° C. set to 100%. The protocol: Furthermore, the effect of different bivalent cations (10 mM) on the activity of EDTA treated enzymes was investigated. The specific activity with 10 mM MnCl2 at 60° C. was set to 100% for each enzyme.

Substrate in data set [10]: OC1OC[C@@H](O)[C@H](O)[C@H]1O
The experiment in a line: cells, lysate or membranes named. The following applies: other: wild type, crude enzyme, 10 mM MnCl2, pH 7.0.

The nature of data set [11]: Xylose isomerase activity assay of crude enzyme preparations from E. coli HB101. Format: biochemical. The protocol:
The cells were harvested by centrifugation in the stationary phase of growth and washed once with ice cold distilled water. […] The suspensions were kept at room temperature for one hour and then on ice for two hours before being put in a freezer at −20° C. The cell lysates were thawed on ice, cell debris was removed by centrifugation (1300 rpm for 15 minutes at 4° C.) and the supernatants were used as the crude enzyme preparations. Protein concentration was determined with the Bradford method (Bradford (1976)) using the Pierce protein reagent with bovine serum albumin as standard. […] The reaction mixture was neutralized with 185 μl 2 M Na2CO3. […] The rate of disappearance of NADH was followed at 340 nm and the concentration of D-xylulose or D-fructose was calculated using calibration curves. […] The specific activity (U min^−1 mg^−1) was determined from the activity and the protein concentration of the crude enzyme preparations.

[12] abbreviates: other: mutant 1021, crude enzyme.
The mark [13] stands for this setting: other: mutant 1024, crude enzyme.

As for `OC1OC[C@@H](O)[C@H](O)[C@H]1O` (stereo partly drawn) [xylose, D-xylose], the Vmax xylose in data set [1] was 0.44 µmol/min/mg. Also, in data set [1] (read-out: Km xylose), the Km – broadly, the concentration of substrate that gives half-maximal velocity – turned out to be 16.6 ± 2.2 mM.

Consider `OC[C@H]1OC(O)[C@H](O)[C@@H](O)[C@@H]1O` (some centres unmarked) [glucose], for which the Vmax glucose in [2] amounted to 0.18 µmol/min/mg; in data set [3] it was 0.015 µmol/min/mg; in data set [1], 0.0034 µmol/min/mg; in [4] it was 0.54 µmol/min/mg.

B1: Thermus thermophilus xylose isomerase (xylA), mutant 1021 (M1021) (Thermus thermophilus HB8; E372G/V379A) (protein)
chain: MYEPKPEHRFTFGLWTVGNVGRDPFGDAVRERLDPVYVVHKLAELGAYGVNLHDEDLIPRGTPPQERDQIVRRFKKALDETGLKVPMVTANLFSDPAFKDGAFTSPDPWVRAYALRKSLETMDLGAELGAEIYVVWPGREGAEVEATGKARKVWDWVREALNFMAAYAEDQGYGYRFALEPKPNEPRGDIYFATVGSMLAFIHTLDRPERFGLNPEFAHETMAGLNFVHAVAQALDAGKLFHIDLNDQRMSRFDQDLRFGSENLKAAFFLVDLLESSGYQGPRHFDAHALRTEDEEGVWAFARGCMRTYLILKERAEAFREDPEVKELLAAYYQEDPAALALLGPYSREKAEALKRAELPLEAKRRRGYALGRLDQLAAEYLLGVRG
notes: made in house; host or cells: E. coli HB101 (crude lysate)
On to B1, for which, in [5], the Km is 52.0 ± 4.9 mM and the Vmax worked out at 0.13 µmol/min/mg. For the same molecule, in data set [6] (setting [12]), the Km came out at 25.1 ± 4.0 mM and the Vmax was 0.84 µmol/min/mg.

B2: Thermus thermophilus xylose isomerase, wild type (nucleic acid sequence SEQ ID NO: 2) (Thermus thermophilus HB8) (protein)
chain: MYEPKPEHRFTFGLWTVGNVGRDPFGDAVRERLDPVYVVHKLAELGAYGVNLHDEDLIPRGTPPQERDQIVRRFKKALDETGLKVPMVTANLFSDPAFKDGAFTSPDPWVRAYALRKSLETMDLGAELGAEIYVVWPGREGAEVEATGKARKVWDWVREALNFMAAYAEDQGYGYRFALEPKPNEPRGDIYFATVGSMLAFIHTLDRPERFGLNPEFAHETMAGLNFVHAVAQALDAGKLFHIDLNDQRMSRFDQDLRFGSENLKAAFFLVDLLESSGYQGPRHFDAHALRTEDEEGVWAFARGCMRTYLILKERAEAFREDPEVKELLAAYYQEDPAALALLGPYSREKAEALKRAELPLEAKRRRGYALERLDQLAVEYLLGVRG
B2: in data set [7], the “activity at 30° C.” value is recorded as “only trace activity”. In addition, in data set [8], the pH optimum is 6-7.5. Moreover, the “Co^2+ (% relative activity)” value in data set [9] (10 mM Co2+) stood at 87.9%. In data set [9] (10 mM Mg2+), the “Mg^2+ (% relative activity)” value is reported as 73.8%. In [10], the Km stood at 3.44 ± 0.4 mM and the Vmax stood at 0.043 µmol/min/mg. Moreover, in data set [11] (30° C., 700 mM D-xylose, 10 mM MnCl2, pH 7.0, crude enzyme), the “Vmax at 30° C.” value was found to be 0.014 μmol/min^−1mg^−1. The molecule further came in with a Temp. optimum in data set [11] (xylose as substrate, pH 7.0) of 85 °C.

B3: Thermus thermophilus xylose isomerase (xylA), mutant 1024 (M1024) (Thermus thermophilus HB8; E372G/F163L) (protein)
chain: MYEPKPEHRFTFGLWTVGNVGRDPFGDAVRERLDPVYVVHKLAELGAYGVNLHDEDLIPRGTPPQERDQIVRRFKKALDETGLKVPMVTANLFSDPAFKDGAFTSPDPWVRAYALRKSLETMDLGAELGAEIYVVWPGREGAEVEATGKARKVWDWVREALNLMAAYAEDQGYGYRFALEPKPNEPRGDIYFATVGSMLAFIHTLDRPERFGLNPEFAHETMAGLNFVHAVAQALDAGKLFHIDLNDQRMSRFDQDLRFGSENLKAAFFLVDLLESSGYQGPRHFDAHALRTEDEEGVWAFARGCMRTYLILKERAEAFREDPEVKELLAAYYQEDPAALALLGPYSREKAEALKRAELPLEAKRRRGYALGRLDQLAVEYLLGVRG
notes: as for B1
Consider B3, for which, in [6] (setting [13]), the Km was determined as 89.4 ± 8.4 mM and the Vmax stood at 3.08 µmol/min/mg.
